# Reference: publication PMC2710984 (International Journal of Peptide Research and Therapeutics, 2006)
# Square brackets hold non-standard residues; d marks the D form. Ends that are not written are not given here. Gly(cPr) = N[C@H](C(=O)O)C1CC1; Chg = N[C@H](C(=O)O)C1CCCCC1; Pip = O=C(O)[C@@H]1CCCCN1; Abu = CC[C@H](N)C(=O)O; Aib = CC(C)(N)C(=O)O
# B1: Chx–VPF (compound 13) (peptide)
# chain: [Chg]VPF-NH2
# B2: Cpg–VPF (compound 12) (peptide)
# chain: [Gly(cPr)]VPF-NH2
# B3: A–Cpg–PF (compound 18) (peptide)
# chain: A[Gly(cPr)]PF-NH2
# B4: AV–Pip–F (compound 21) (peptide)
# chain: AV[Pip]F-NH2
# B5: Abu–VPF (compound 9) (peptide)
# chain: [Abu]VPF-NH2
# B6: Dmg–VPF (compound 11) (peptide)
# chain: [Aib]VPF-NH2
# Target: GST–BIR3 fusion protein (XIAP BIR3 domain)
# Test: FMAT bead-based fluorescence competition assay
row,Binder,IC50 [µM]
1,B1,> 1.6
2,B2,> 1.6
3,B3,> 1.6
4,B4,0.71
5,B5,0.12
6,B6,> 1.6
